Results from patent publication US20180155451A1 (published 2018).

T1: FcγRIIa H (human, UniProt P12318 34-217)
T1 construct: extracellular domain; Soluble extracellular domain with C-terminal His tag, expressed in FreeStyle293 cells; also called FcgRIIa H; 2aH; not shown: C-terminal His tag
T1 sequence (looked up): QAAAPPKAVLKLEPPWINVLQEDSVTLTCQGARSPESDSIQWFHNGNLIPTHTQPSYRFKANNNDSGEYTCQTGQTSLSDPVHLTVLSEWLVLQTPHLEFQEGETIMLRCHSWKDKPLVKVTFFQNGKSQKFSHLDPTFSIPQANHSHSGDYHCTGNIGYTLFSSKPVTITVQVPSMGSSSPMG

T2: FcγRIIb (human, UniProt P31994 43-217)
T2 construct: extracellular domain; Soluble extracellular domain with C-terminal His tag, expressed in FreeStyle293 cells; also called FcgRIIb; 2b; not shown: C-terminal His tag
T2 sequence (looked up): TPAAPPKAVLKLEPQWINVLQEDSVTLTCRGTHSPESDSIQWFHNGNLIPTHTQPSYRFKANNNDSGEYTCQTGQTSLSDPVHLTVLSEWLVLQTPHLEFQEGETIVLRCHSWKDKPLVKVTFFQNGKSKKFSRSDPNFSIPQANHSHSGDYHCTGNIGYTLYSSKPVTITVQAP


Assays:
[1] = molecular target: T1, FcγRIIa H; test: SPR (Biacore), antibody captured, FcγR as analyte; relative to HeCon Ab
Procedure: (§1) The heterodimerized antibodies He Abs in which one of the H chains was introduced with an alteration were assayed for their binding activities to each activating FcγR and inhibitory FcγR according to the method described in Example 4. […] The activating FcγRs in FIGS. 26, 27, 28, and 29 are FcγRIa, FcγRIIa (R), FcγRIIa (H), and FcγRIIIa, respectively.
(§2) Analysis of interaction between objective antibody and the FcγR was carried out using Biacore T100 (GE Healthcare). HBS-EP+ (GE Healthcare) was used as the running buffer, and the measurement temperature was set to 25° C. Chips produced by immobilizing the antigen peptide by the amine coupling method to a Series S Sencor Chip CM5 (GE Healthcare), or alternatively, chips produced by allowing preliminarily biotinylated antigen peptides to interact with and immobilize onto a Series S Sensor Chip SA (certified) (GE Healthcare) were used. Antibodies of interest were captured onto an antigen peptide-immobilized chip, and allowed to interact to each FcγR diluted with running buffer. To regenerate and repeatedly use the chip, the antibodies captured on the chip were washed off by reacting 10 mM glycine-HCl, pH 1.5.

[2] = molecular target: T2, FcγRIIb; test: as above
Procedure: as §1, §2

| Binder | He/Con_2aH [1] | He/Con_2b [2] |
| --- | --- | --- |
| GpH7-A5/GpH7-B3 variant S239_06M/GpL16-k0 (antibody, human IgG1, kappa, Heterodimerized anti-glypican-3 IgG1; alteration in the GpH7-B3 chain only; also called He Ab) heavy 1: not shown heavy 2: not shown light: DIVMTQSPLSLPVTPGEPASISCQASESLVHSNRNTYLHWYLQKPGQSPQLLIYKVSNRFSGVPDRFSGSGSGTDFTLKISRVEAEDVGVYYCSQNTHVPPTFGQGTKVEIERTVAAPSVFIFPPSDEQLKSGTASVVCLLNNFYPREAKVQWKVDNALQSGNSQESVTEQDSKDSTYSLSSTLTLSKADYEKHKVYACEVTHQGLSSPVTKSFNRGEC | 98.6 % of GpH7-A5/GpH7-B3/GpL16-k0 (=100) | 101 % of GpH7-A5/GpH7-B3/GpL16-k0 (=100) |
| GpH7-A5/GpH7-B3 variant P238_18N/GpL16-k0 (antibody, human IgG1, kappa, Heterodimerized anti-glypican-3 IgG1; alteration in the GpH7-B3 chain only; also called He Ab) heavy 1: not shown heavy 2: not shown light: DIVMTQSPLSLPVTPGEPASISCQASESLVHSNRNTYLHWYLQKPGQSPQLLIYKVSNRFSGVPDRFSGSGSGTDFTLKISRVEAEDVGVYYCSQNTHVPPTFGQGTKVEIERTVAAPSVFIFPPSDEQLKSGTASVVCLLNNFYPREAKVQWKVDNALQSGNSQESVTEQDSKDSTYSLSSTLTLSKADYEKHKVYACEVTHQGLSSPVTKSFNRGEC | 53.5 % of GpH7-A5/GpH7-B3/GpL16-k0 (=100) | 73.2 % of GpH7-A5/GpH7-B3/GpL16-k0 (=100) |
| GpH7-A5/GpH7-B3 variant P238_10E/GpL16-k0 (antibody, human IgG1, kappa, Heterodimerized anti-glypican-3 IgG1; alteration in the GpH7-B3 chain only; also called He Ab) heavy 1: not shown heavy 2: not shown light: DIVMTQSPLSLPVTPGEPASISCQASESLVHSNRNTYLHWYLQKPGQSPQLLIYKVSNRFSGVPDRFSGSGSGTDFTLKISRVEAEDVGVYYCSQNTHVPPTFGQGTKVEIERTVAAPSVFIFPPSDEQLKSGTASVVCLLNNFYPREAKVQWKVDNALQSGNSQESVTEQDSKDSTYSLSSTLTLSKADYEKHKVYACEVTHQGLSSPVTKSFNRGEC | 77.1 % of GpH7-A5/GpH7-B3/GpL16-k0 (=100) | 232 % of GpH7-A5/GpH7-B3/GpL16-k0 (=100) |
| GpH7-A5/GpH7-B3 variant P238_08L/GpL16-k0 (antibody, human IgG1, kappa, Heterodimerized anti-glypican-3 IgG1; alteration in the GpH7-B3 chain only; also called He Ab) heavy 1: not shown heavy 2: not shown light: DIVMTQSPLSLPVTPGEPASISCQASESLVHSNRNTYLHWYLQKPGQSPQLLIYKVSNRFSGVPDRFSGSGSGTDFTLKISRVEAEDVGVYYCSQNTHVPPTFGQGTKVEIERTVAAPSVFIFPPSDEQLKSGTASVVCLLNNFYPREAKVQWKVDNALQSGNSQESVTEQDSKDSTYSLSSTLTLSKADYEKHKVYACEVTHQGLSSPVTKSFNRGEC | 84.6 % of GpH7-A5/GpH7-B3/GpL16-k0 (=100) | 204 % of GpH7-A5/GpH7-B3/GpL16-k0 (=100) |
| GpH7-A5/GpH7-B3 variant S267_03V/GpL16-k0 (antibody, human IgG1, kappa, Heterodimerized anti-glypican-3 IgG1; alteration in the GpH7-B3 chain only; also called He Ab) heavy 1: not shown heavy 2: not shown light: DIVMTQSPLSLPVTPGEPASISCQASESLVHSNRNTYLHWYLQKPGQSPQLLIYKVSNRFSGVPDRFSGSGSGTDFTLKISRVEAEDVGVYYCSQNTHVPPTFGQGTKVEIERTVAAPSVFIFPPSDEQLKSGTASVVCLLNNFYPREAKVQWKVDNALQSGNSQESVTEQDSKDSTYSLSSTLTLSKADYEKHKVYACEVTHQGLSSPVTKSFNRGEC | 50.8 % of GpH7-A5/GpH7-B3/GpL16-k0 (=100) | 192 % of GpH7-A5/GpH7-B3/GpL16-k0 (=100) |
| GpH7-A5/GpH7-B3 variant S239_01G/GpL16-k0 (antibody, human IgG1, kappa, Heterodimerized anti-glypican-3 IgG1; alteration in the GpH7-B3 chain only; also called He Ab) heavy 1: not shown heavy 2: not shown light: DIVMTQSPLSLPVTPGEPASISCQASESLVHSNRNTYLHWYLQKPGQSPQLLIYKVSNRFSGVPDRFSGSGSGTDFTLKISRVEAEDVGVYYCSQNTHVPPTFGQGTKVEIERTVAAPSVFIFPPSDEQLKSGTASVVCLLNNFYPREAKVQWKVDNALQSGNSQESVTEQDSKDSTYSLSSTLTLSKADYEKHKVYACEVTHQGLSSPVTKSFNRGEC | 97 % of GpH7-A5/GpH7-B3/GpL16-k0 (=100) | 144 % of GpH7-A5/GpH7-B3/GpL16-k0 (=100) |
| GpH7-A5/GpH7-B3 variant P238_09D/GpL16-k0 (antibody, human IgG1, kappa, Heterodimerized anti-glypican-3 IgG1; alteration in the GpH7-B3 chain only; also called He Ab) heavy 1: not shown heavy 2: not shown light: DIVMTQSPLSLPVTPGEPASISCQASESLVHSNRNTYLHWYLQKPGQSPQLLIYKVSNRFSGVPDRFSGSGSGTDFTLKISRVEAEDVGVYYCSQNTHVPPTFGQGTKVEIERTVAAPSVFIFPPSDEQLKSGTASVVCLLNNFYPREAKVQWKVDNALQSGNSQESVTEQDSKDSTYSLSSTLTLSKADYEKHKVYACEVTHQGLSSPVTKSFNRGEC | 87.5 % of GpH7-A5/GpH7-B3/GpL16-k0 (=100) | 221 % of GpH7-A5/GpH7-B3/GpL16-k0 (=100) |
| GpH7-A5/GpH7-B3 variant S267_07I/GpL16-k0 (antibody, human IgG1, kappa, Heterodimerized anti-glypican-3 IgG1; alteration in the GpH7-B3 chain only; also called He Ab) heavy 1: not shown heavy 2: not shown light: DIVMTQSPLSLPVTPGEPASISCQASESLVHSNRNTYLHWYLQKPGQSPQLLIYKVSNRFSGVPDRFSGSGSGTDFTLKISRVEAEDVGVYYCSQNTHVPPTFGQGTKVEIERTVAAPSVFIFPPSDEQLKSGTASVVCLLNNFYPREAKVQWKVDNALQSGNSQESVTEQDSKDSTYSLSSTLTLSKADYEKHKVYACEVTHQGLSSPVTKSFNRGEC | 34.7 % of GpH7-A5/GpH7-B3/GpL16-k0 (=100) | 192 % of GpH7-A5/GpH7-B3/GpL16-k0 (=100) |
